Where a chain is given by its changes, count along the chain named.
B1: B1.225 (antibody, human IgG1, V domains shown)
VH: EVQLVESGGALVKPGGSLKLSCAASGFTFSNYGMSWVRQTPEKRLEWVATISSGGSYTYYPDTVKGRFTISRDNAKNTLHLQMSSLRSEDTALYYCARRGTNDAWFGYWGQGTLVTVSA
VL: DVVMTQTPLSLPVSLGDQASISCRFSQSIVHSNGNTYLEWYLQKPGQSPKLLIYKVSNRFFGVPDRFSGSGSGTDFTLKISRVEAEDLGVYFCFQGSHVPQYTFGGGTKLEIK
B2: KB1.273A (antibody, human IgG1, V domains shown)
VH: QVQLQQSGPELVKTGASVKISCKASGYSFSNYYIHWVKQSHGKSLEWIGFISCYNGATFYNQKFKGKATFTVDTSSSTAYMKFNSLTFEDSAVYYCARLPIQFGNFYPMDYWGQGTSVTVSS
VL: QIVLTQSPAIMSASLGERVTMTCTASSSVSSSYLHWYQQKPGSSPKLWIYSTSNLASGVPARFSGSGSGTSYSLTISSMEAEDAATYYCHQYHRSPPTFGAGTKLELK
B3: KPA08 (antibody, V domains shown)
VH: EVKVVESGGVLVRPGGSLKLSCAASGFTFSRYTMSWVRQTPEKRLEWVATISSGGGNTYYPDSVKGRFTVSRDNAMSSLYLQMSSLRSEDTALYYCARYGAGDAWFAYWGQGTLVTVSS
VL: DVLMTQTPVSLSVSLGDQASISCRSSQSIVHSTGNTYLEWYLQKPGQSPKLLIYKISNRFSGVPDRFSGSGSGTDFTLKISRVEAEDLGVYYCFQASHFPRTFGGGTKLEIK
B4: KB1.269A (antibody, human IgG1, V domains shown)
VH: B1 VH with L11S, G33A, P61L, T63S, H80Y, R99Y, G100Y, T101V, N102Y, G107A
VL: B3 VL with L3V, V9L, S12P, I56V, Y91F, A96G, F99V
B5: B1.217 (antibody, human IgG1, V domains shown)
VH: EVQLVESGGALVKPGGSLKLSCAASGFTFSNYAMSWVRQTPEKRLEWVATISSGGSYTYYPDSVKGRFTISRDNAKNTLYLQMSSLRSEDTALYYCTKYSNYGRFAYWGQGTLVTVST
VL: B3 VL with V9L, S12P, I56V, A96G, F99I, R101Y
B6: B1.39 (antibody, human IgG1, V domains shown)
VH: EVMLVESGGGLVKPGGSLKLSCAASGFTFSSYTMSWVRQTPEKRLEWVATVSSGGGNTYYPDSVKGRFTISRDNAKNNLYLQMSSLRSEDTALYYCARYGNYGWFTYWGQGTLVTVSA
VL: B3 VL with V9L, S12P, V30L, T33N, I56V, G69A, V90I, A96G, F99V
B7: B1.188 (antibody, human IgG1, V domains shown)
VH: EVMLVESGGALVKPGGSLKLSCAASGFTFSNYAMSWVRQTPEKRLEWVATISSGGSYTYYPDSVKGRFTISRDNARNTLYLQMSSLRSEDTAMYYCARGYGNFAWFAYWGQGTLVTVSA
VL: B3 VL with V2I, L3Q, T7S, V9L, S12P, I56V, A96G, F99V, R101F, G105S
B8: B1.27 (antibody, human IgG1, V domains shown)
VH: B6 VH with M3K, L86P, A118S
VL: B3 VL with L3V, V9L, S12P, S28N, E39D, I56V, Y92F, A96G, F99I
B9: B1.89 (antibody, human IgG1, V domains shown)
VH: KVQLVESGGALVKPGGSLKLSCAASGFTFSNYAMSWVRQTPEKRLEWVATISSSGSYTYFPDSVKGRFTISRDNAKNTLYLQMSSLRSEDTALYYCARYGYDEAWFASWGQGTLVTVSA
VL: B3 VL with V9L, S12P, S28T, T33N, I56V, N58K, A96G
B10: B1.264 (antibody, human IgG1, V domains shown)
VH: B5 VH with Q3K, Y57N, K65M, T97A, K98R, R104W, T118S
VL: B3 VL with L3V, V9L, S12P, T33N, I56V, A96G, H98L, F99V
B11: B1.30 (antibody, human IgG1, V domains shown)
VH: EVMLVESGGGLVKPGGSLKLSCAASGFTFSSYTMSWVRQTPEKRLEWVATISSGGGNTYYPDSVKGRFTISRDNAKNNLYLQMSSLRSEDTALYYCARYYRYDAWFAYWGQGTLVTVSA
VL: B3 VL with V9L, S12P, I56V, A85T, A96G, F99V
B12: B1.198 (antibody, human IgG1, V domains shown)
VH: B5 VH with T97A, T118A
VL: B3 VL with L3V, V9L, S12P, H31D, T33N, I56V, S61F, A96G, F99V, R101Y
B13: B1.263 (antibody, human IgG1, V domains shown)
VH: EVKLVESGGGLVKPGGSLKLSCAASGFTFSNYGMSWVRQTPEKRLEWVAAISSNGAYTYFPDTVKGRFTISRDNAKNTLYLQMNSLRSEDTALYYCTRRGWDTWFAYWGQGTLVTVSS
VL: B3 VL with L3V, V9L, S12P, S28N, I56V, A96G, F99V, R101W
B14: B1.85 (antibody, human IgG1, V domains shown)
VH: B7 VH with M3Q, A33G, M34V, G54S, S63I, K65R, R76K, M93F
VL: B3 VL with V2I, L3Q, T7S, V9L, S12P, I56V, S81N, A96G, F99V, R101Y
B15: B1.178 (antibody, human IgG1, V domains shown)
VH: EAQLVESGGALVKPGGSLKLSCSASGFTFSNYAMSWVRQTPEKRLEWVATISSGGTNTYYPGSVKGRFTIARDNAKNTLYLLMSSLRSEDTALYFCARYSNLAWFASWGQGTLVTVSA
VL: DVVMTQTPLSLPVSLGDQASISCRSSQSIVHSNGNTYLEWYLQKPGQSPKFLISKVSNRFSGVPDRFSGSGSGTDFTLKISRVEAEDLGIYYCFQGSHVPYTFGGGTKLEIK
B16: B1.99 (antibody, human IgG1, V domains shown)
VH: B7 VH with M3Q, K43R, R76K, R87I, M93L, A97T, Q111H
VL: B15 VL with A19V, N33Y, N35S, F51L, S54Y, I90V, Y92F, V99I, I111L
B17: B1.201 (antibody, human IgG1, V domains shown)
VH: EVQLVESGGALMKPGGSLKFSCAASGFTFTNYAMSWVRQTPEKRLEWVATISSGGSNTYYSDSVKGRFTISRDNAKTTLYLQMSGLRSEDTALYYCAKFSNFGRFASWGQGTLVTVSA
VL: B15 VL with V3L, S25F, N33S, K50R, F51L, S54Y, S61F, F67I, K79R, I90V
B18: B1.275 (antibody, human IgG1, V domains shown)
VH: EVMLVESGGALVKPGGSLKVSCAASGFTFSNYAMSWVRQSPEMRLEWVATISSGGTNTYYPDSVKGRFTISRDNARNTLYLQMSSLRSKDTAMYYCARYSNYGWFPYWGQGTTLTVSS
VL: B15 VL with S28T, N33D, N35Y, F51L, S54Y, K79R, I90V
B19: B1.226 (antibody, human IgG1, V domains shown)
VH: B5 VH with K43T, T97A, K98R, Y102L, G103A, R104W, T118A
VL: B15 VL with E39D, L52M, S54Y, I90V
B20: B1.207 (antibody, human IgG1, V domains shown)
VH: B5 VH with E1G, N77T, S85G, T97A, Y107S
VL: B15 VL with V3L, N33S, K50R, F51L, S54Y, S61F, F67I, K79R, I90V
B21: B1.276 (antibody, human IgG1, V domains shown)
VH: EVKLVESGGALVKPGGSLKLSCAASGFTFRNYAMSWVRQTPEKRLEWVATISSDGSYTYHPDSVKGRFTISRDNARNTLYLQMSSLRSEDTAMYSCTRQGNWGRTWFTYWGQGTLVTVSS
VL: QIVLTQSPAIMSASPGEKVTMTCRASSSVSSSYLHWYQQKSGASPKLWIYSTSSLASGVPARFSGSGSGTSYSLTISSVEAEDAATYYCQQYSGYPLTFGAGTKLELK
B22: B1.278 (antibody, human IgG1, V domains shown)
VH: QVQLQQSGPELVKPGASVKISCKASGYSFTGYFMNWVMQSHGKSLEWIGRINPYNGDTFYNQKFKGKATLTVDKSSGTAHMELRSLASEDSAVYYCARCYYYGSSSYGMDYWGQGTSVTVSS
VL: QIVLTQSPASLAVSLGQRATISCRASESVHNYGVSFMNWFQQRPGQPPKLLIHAASHQGSGVPARFTGSGSGTDFSLNIHPMEEDDIAMYFCQQSKEVPLTFGAGTKLKLK
B23: B1.219 (antibody, human IgG1, V domains shown)
VH: B5 VH with G54V, N77T, S85G, T97A, Y107S
VL: DVLMTQTPLSLPASLGDQASISCRSSQSIVHSSGNTYLEWYLQKPGQSPRLLIYKVSNRFFGVPDRISGSGSGTDFTLRISRVEAEDLGVYYCFQGSHVPYTFGGGTKLEIE
B24: B1.223 (antibody, human IgG1, V domains shown)
VH: B5 VH with Q3K, N77T, S85G, T97A, Y99F, Y107S, T118S
VL: B23 VL with V2I, L3Q, T5I, T7S, A13V, I111L, E112K
B25: KT14.5F9hu scFv-B1.28.hu13 (bispecific antibody, human IgG1, kappa)
scFv: not shown
heavy: EVQLVESGGGLVKPGGSLRLSCAASGFTFGLYTMSWVRQAPGKGLEWVATISSGGSNTYYPDSVKGRFTISRDNAKNSLYLQMNSLRAEDTAVYYCARYYRYDAWFAYWGQGTLVTVSSASTKGPSVFPLAPSSKSTSGGTAALGCLVKDYFPEPVTVSWNSGALTSGVHTFPAVLQSSGLYSLSSVVTVPSSSLGTQTYICNVNHKPSNTKVDKRVEPKSCDKTHTCPPCPAPELLGGPSVFLFPPKPKDTLMISRTPEVTCVVVDVSHEDPEVKFNWYVDGVEVHNAKTKPREEQYNSTYRVVSVLTVLHQDWLNGKEYKCKVSNKALPAPIEKTISKAKGQPREPQVCTLPPSREEMTKNQVSLSCAVKGFYPSDIAVEWESNGQPENNYKTTPPVLDSDGSFFLVSKLTVDKSRWQQGNVFSCSVMHEALHNHYTQKSLSLSPGK
light: EVVLTQSPATLSLSPGERATLSCRSSQNIVHSTGNTYLDWYQQKPGQSPRLLIYKVSNRFSGVPARFSGSGSGTDFTLTISSLEPEDFAVYYCFQGSHIPRTFGGGTKLEIKRTVAAPSVFIFPPSDEQLKSGTASVVCLLNNFYPREAKVQWKVDNALQSGNSQESVTEQDSKDSTYSLSSTLTLSKADYEKHKVYACEVTHQGLSSPVTKSFNRGEC
B26: KT14.B6H12hu scFv-B1.28.hu13 (bispecific antibody, human IgG1, kappa)
scFv: not shown
heavy: B25 heavy
light: B25 light

Biological target: human MDR1 (multidrug resistance protein 1) (human, UniProt P08183 1-1280)
Experiment: cell-based or functional assay

| IC50 of vincristine on N6/ADR cells with antibody | Binder |
| --- | --- |
| 0.0035 nM | B1 |
| 0.0299 nM | B2 |
| 2.93 nM | B3 |
| 0.0323 nM | B4 |
| 0.0386 nM | B5 |
| 0.0909 nM | B6 |
| 0.0929 nM | B7 |
| 2.83 nM | B8 |
| 0.0622 nM | B9 |
| 0.0192 nM | B10 |
| 0.0522 nM | B11 |
| 0.0167 nM | B12 |
| 0.0062 nM | B13 |
| 0.0345 nM | B14 |
| 0.0528 nM | B15 |
| 0.0619 nM | B16 |
| 0.0216 nM | B17 |
| 0.0781 nM | B18 |
| 0.0138 nM | B19 |
| 0.0095 nM | B20 |
| 0.029 nM | B21 |
| 0.029 nM | B22 |
| 0.0103 nM | B23 |
| 0.0068 nM | B24 |

Biological target: T1, human CD47 (human, UniProt Q08722 19-323)
T1 construct: whole, on cells; Overexpressed on rat C6 cells, or endogenous on human tumour cell lines; also called KT14; hKT14
Experiment: binding to C6 cells expressing human CD47, figure legend

| binding result | Binder |
| --- | --- |
| binds | B25 |
| binds | B26 |

Reference: patent publication US20230203156A1 (WILLIAM ROBERT ARATHOON LIVING TRUST DATED AUGUST 29 2016, published 2023)
